Data taken from patent US20250034212A1, “PEPTIDE” (PEPTIDREAM INC., priority 2021, published 2025).
Starred links: 1 amine or outer side, 2 acyl side, 3 side chain; linkers in the order of their positions; H or OH if unused. Positions of bridges follow the written chain, without caps; N, C: chain ends. Non-standard residues stand in square brackets, D forms with d. KCOmeglumine = N6-(methyl-((2S,3R,4R,5R)-2,3,4,5,6-pentahydroxyhexyl)carbamoyl)-L-lysine, CN(C[C@H](O)[C@@H](O)[C@H](O)[C@H](O)CO)C(=O)NCCCC[C@H](N[*:1])C(=O)[*:2]; KCOpipzaa = N6-(4-(carboxymethyl)piperazine-1-carbonyl)-L-lysine, O=C(NCCCC[C@H](N[*:1])C(=O)[*:2])N1CCN(CC(=O)[*:3])CC1; OCOmPEG10000 = methoxypolyethyleneglycol (10000) carbonate on Lys NZ; Trp(7-aza) = N[C@@H](Cc1c[nH]c2ncccc12)C(=O)O; 1Nal = N[C@@H](Cc1cccc2ccccc12)C(=O)O; Gly(NCH2CH2Ph) = O=C(O)CNCCc1ccccc1; 4Pal = N[C@@H](Cc1ccncc1)C(=O)O

Legend:
[1] = biological target: T1, recombinant human TGF-β1 (R&D systems) (human, UniProt P01137 279-390); experiment: SPR, TGF-β1 immobilised, single cycle kinetics
T1 construct: Bought protein; immobilised on a CM3 chip (SPR) or on Dynabeads (ELISA), added to cells in the SBE reporter assay; also called TGF-β1 beads
T1 sequence (P01137 279-390 limits assumed): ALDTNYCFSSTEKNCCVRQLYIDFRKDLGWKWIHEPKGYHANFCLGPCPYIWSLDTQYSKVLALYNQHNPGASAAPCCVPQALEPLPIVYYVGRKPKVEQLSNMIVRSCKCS
Method: Subsequently, 50 μL of 60 mM EDC solution (Global Life Science Technologies Japan Co., Ltd.) and 50 μL of 650 mM NHS solution (Global Life Science Technologies Japan Co., Ltd.) were mixed. Next, the reaction was carried out at a flow rate of 10 μL/min for 420 seconds. Then, 150 μL of 0.2 μM TGF-β solution diluted in 10 mM acetic acid solution (pH 5.0) was prepared and reacted at a flow rate of 10 μL/min for 420 seconds to immobilize TGF-β on the CM3 sensor chip. TGF-β was human-derived TGF-β1 or β2 (recombinant human TGF-β1, 2) and was obtained from R&D systems. After immobilization, capping was performed by reacting with 1.0 M ethanolamine aqueous solution (Global Life Science Technologies Japan Co., Ltd.) at a flow rate of […] for 420 seconds.
A liquid prepared by dissolving each peptide at 10 mM in DMSO solution was diluted with running buffer to prepare a peptide-dissolved solution at a final concentration of 10 μM. Subsequently, 50 nM, 25 nM, 12.5 nM, 5 nM, and 2.5 nM peptide solutions were prepared. Using the above samples, the kinetics of each peptide against TGF-β was obtained by SPR measurement.
The kinetics evaluation model was Single Cycle Kinetics, and curve fitting was performed using Biacore T200 Evaluation Software Version 3.0 (Global Life Science Technologies Japan Co., Ltd.). The binding of various peptides to TGF-β was evaluated by performing least-squares curve fitting on the obtained sensorgram to calculate the KD value.

[2] = biological target: T1, recombinant human TGF-β1 (R&D systems); experiment: cell-based or functional assay
[3] = biological target: T1, recombinant human TGF-β1 (R&D systems); experiment: cell-based or functional assay; remark: listed apart in the source

Kd [1] | SBE reporter % inhibition, peptide 0.075 nM [2] | SBE reporter % inhibition, peptide 0.75 nM [2] | SBE reporter % inhibition, peptide 7.5 nM [2] | SBE reporter % inhibition, peptide 75.0 nM [2] | SBE reporter % inhibition, peptide 0.062 nM [3] | SBE reporter % inhibition, peptide 0.185 nM [3] | SBE reporter % inhibition, peptide 0.56 nM [3] | SBE reporter % inhibition, peptide 1.7 nM [3] | SBE reporter % inhibition, peptide 5.0 nM [3] | SBE reporter % inhibition, peptide 15.0 nM [3] | Binder
1.07 nM | 21.7% | 60.2% | 97.2% | 100% |  |  |  |  |  |  | {CH2CO}-F[Trp(7-aza)]VVNV[4Pal]D[KCOpipzaa][Gly(NCH2CH2Ph)]V[1Nal]YHVCG-NH2 (thioether N-16; SMILES CC(C)[C@@H]1NC(=O)CN(CCc2ccccc2)C(=O)[C@H](CCCCNC(=O)N2CCN(CC(=O)O)CC2)NC(=O)[C@H](CC(=O)O)NC(=O)[C@H](Cc2ccncc2)NC(=O)[C@H](C(C)C)NC(=O)[C@H](CC(N)=O)NC(=O)[C@H](C(C)C)NC(=O)[C@H](C(C)C)NC(=O)[C@H](Cc2c[nH]c3ncccc23)NC(=O)[C@H](Cc2ccccc2)NC(=O)CSC[C@@H](C(=O)NCC(N)=O)NC(=O)[C@H](C(C)C)NC(=O)[C@H](Cc2c[nH]cn2)NC(=O)[C@H](Cc2ccc(O)cc2)NC(=O)[C@H](Cc2cccc3ccccc23)NC1=O, cyclic peptide; C-terminal G is a linker) [TGFb1_017]
1.42 nM | 22.2% | 61% | 97.6% | 99.9% |  |  |  |  |  |  | {CH2CO}-F[Trp(7-aza)]VVNV[4Pal]D[KCOmeglumine][Gly(NCH2CH2Ph)]V[1Nal]YHVCG-NH2 (thioether N-16; SMILES CC(C)[C@@H]1NC(=O)CN(CCc2ccccc2)C(=O)[C@H](CCCCNC(=O)N(C)C[C@H](O)[C@@H](O)[C@H](O)[C@H](O)CO)NC(=O)[C@H](CC(=O)O)NC(=O)[C@H](Cc2ccncc2)NC(=O)[C@H](C(C)C)NC(=O)[C@H](CC(N)=O)NC(=O)[C@H](C(C)C)NC(=O)[C@H](C(C)C)NC(=O)[C@H](Cc2c[nH]c3ncccc23)NC(=O)[C@H](Cc2ccccc2)NC(=O)CSC[C@@H](C(=O)NCC(N)=O)NC(=O)[C@H](C(C)C)NC(=O)[C@H](Cc2c[nH]cn2)NC(=O)[C@H](Cc2ccc(O)cc2)NC(=O)[C@H](Cc2cccc3ccccc23)NC1=O, cyclic peptide; C-terminal G is a linker) [TGFb1_018]
1.31 nM |  |  |  |  | 0.94% | 6.17% | 20.4% | 47.6% | 73.9% | 91.7% | {CH2CO}-F[1Nal]V[KCOmeglumine]NV[4Pal]DD[Gly(NCH2CH2Ph)]V[1Nal]YHECG-NH2 (thioether N-16; SMILES CC(C)[C@@H]1NC(=O)CN(CCc2ccccc2)C(=O)[C@H](CC(=O)O)NC(=O)[C@H](CC(=O)O)NC(=O)[C@H](Cc2ccncc2)NC(=O)[C@H](C(C)C)NC(=O)[C@H](CC(N)=O)NC(=O)[C@H](CCCCNC(=O)N(C)C[C@H](O)[C@@H](O)[C@H](O)[C@H](O)CO)NC(=O)[C@H](C(C)C)NC(=O)[C@H](Cc2cccc3ccccc23)NC(=O)[C@H](Cc2ccccc2)NC(=O)CSC[C@@H](C(=O)NCC(N)=O)NC(=O)[C@H](CCC(=O)O)NC(=O)[C@H](Cc2c[nH]cn2)NC(=O)[C@H](Cc2ccc(O)cc2)NC(=O)[C@H](Cc2cccc3ccccc23)NC1=O, cyclic peptide; C-terminal G is a linker) [TGFb1_028]
0.94 nM |  |  |  |  | 12% | 16.9% | 32.4% | 63.7% | 85.8% | 96.8% | {CH2CO}-F[1Nal]V[KCOmeglumine]NV[4Pal]DE[Gly(NCH2CH2Ph)]V[1Nal]YHECG-NH2 (thioether N-16; SMILES CC(C)[C@@H]1NC(=O)CN(CCc2ccccc2)C(=O)[C@H](CCC(=O)O)NC(=O)[C@H](CC(=O)O)NC(=O)[C@H](Cc2ccncc2)NC(=O)[C@H](C(C)C)NC(=O)[C@H](CC(N)=O)NC(=O)[C@H](CCCCNC(=O)N(C)C[C@H](O)[C@@H](O)[C@H](O)[C@H](O)CO)NC(=O)[C@H](C(C)C)NC(=O)[C@H](Cc2cccc3ccccc23)NC(=O)[C@H](Cc2ccccc2)NC(=O)CSC[C@@H](C(=O)NCC(N)=O)NC(=O)[C@H](CCC(=O)O)NC(=O)[C@H](Cc2c[nH]cn2)NC(=O)[C@H](Cc2ccc(O)cc2)NC(=O)[C@H](Cc2cccc3ccccc23)NC1=O, cyclic peptide; C-terminal G is a linker) [TGFb1_029]
0.97 nM | 6.1% | 61% | 97.6% | 100% |  |  |  |  |  |  | {CH2CO}-F[1Nal]VVNV[4Pal]DD[Gly(NCH2CH2Ph)]V[1Nal]YH[KCOmeglumine]CG-NH2 (thioether N-16; SMILES CC(C)[C@@H]1NC(=O)CN(CCc2ccccc2)C(=O)[C@H](CC(=O)O)NC(=O)[C@H](CC(=O)O)NC(=O)[C@H](Cc2ccncc2)NC(=O)[C@H](C(C)C)NC(=O)[C@H](CC(N)=O)NC(=O)[C@H](C(C)C)NC(=O)[C@H](C(C)C)NC(=O)[C@H](Cc2cccc3ccccc23)NC(=O)[C@H](Cc2ccccc2)NC(=O)CSC[C@@H](C(=O)NCC(N)=O)NC(=O)[C@H](CCCCNC(=O)N(C)C[C@H](O)[C@@H](O)[C@H](O)[C@H](O)CO)NC(=O)[C@H](Cc2c[nH]cn2)NC(=O)[C@H](Cc2ccc(O)cc2)NC(=O)[C@H](Cc2cccc3ccccc23)NC1=O, cyclic peptide; C-terminal G is a linker) [TGFb1_016]
1.11 nM |  |  |  |  | 2.53% | 9.14% | 28.4% | 59.4% | 84.9% | 95.5% | {CH2CO}-F[1Nal]VVNV[4Pal]DD[Gly(NCH2CH2Ph)]V[1Nal]YHECG-NH2 (thioether N-16; SMILES CC(C)[C@@H]1NC(=O)CN(CCc2ccccc2)C(=O)[C@H](CC(=O)O)NC(=O)[C@H](CC(=O)O)NC(=O)[C@H](Cc2ccncc2)NC(=O)[C@H](C(C)C)NC(=O)[C@H](CC(N)=O)NC(=O)[C@H](C(C)C)NC(=O)[C@H](C(C)C)NC(=O)[C@H](Cc2cccc3ccccc23)NC(=O)[C@H](Cc2ccccc2)NC(=O)CSC[C@@H](C(=O)NCC(N)=O)NC(=O)[C@H](CCC(=O)O)NC(=O)[C@H](Cc2c[nH]cn2)NC(=O)[C@H](Cc2ccc(O)cc2)NC(=O)[C@H](Cc2cccc3ccccc23)NC1=O, cyclic peptide; C-terminal G is a linker) [TGFb1_027]
3.08 nM |  |  |  |  | 2.67% | 7.18% | 1.11% | 4.77% | 54% | 91.3% | {CH2CO}-F[1Nal]VVNV[4Pal]DD[Gly(NCH2CH2Ph)]V[1Nal]YH[KCOpipzaa]CGK(OCOmPEG10000)-NH2 (thioether N-16, cyclic peptide; linker G K(OCOmPEG10000) at the C-terminus) [TGFb1_032]
1.37 nM |  |  |  |  | 10.2% | 26.9% | 58.9% | 87.8% | 97.1% | 98.8% | {CH2CO}-F[1Nal]VVNV[4Pal]DE[Gly(NCH2CH2Ph)]V[1Nal]YH[KCOpipzaa]CG-NH2 (thioether N-16; SMILES CC(C)[C@@H]1NC(=O)CN(CCc2ccccc2)C(=O)[C@H](CCC(=O)O)NC(=O)[C@H](CC(=O)O)NC(=O)[C@H](Cc2ccncc2)NC(=O)[C@H](C(C)C)NC(=O)[C@H](CC(N)=O)NC(=O)[C@H](C(C)C)NC(=O)[C@H](C(C)C)NC(=O)[C@H](Cc2cccc3ccccc23)NC(=O)[C@H](Cc2ccccc2)NC(=O)CSC[C@@H](C(=O)NCC(N)=O)NC(=O)[C@H](CCCCNC(=O)N2CCN(CC(=O)O)CC2)NC(=O)[C@H](Cc2c[nH]cn2)NC(=O)[C@H](Cc2ccc(O)cc2)NC(=O)[C@H](Cc2cccc3ccccc23)NC1=O, cyclic peptide; C-terminal G is a linker) [TGFb1_021]
